For the experiment, the target named is Bovine brain α/β tubulin (bovine) (UniProt P81947). In words: cell-based or functional assay.
Bovine brain α/β tubulin (bovine), sequence (P81947 whole entry, chain 1 of 2): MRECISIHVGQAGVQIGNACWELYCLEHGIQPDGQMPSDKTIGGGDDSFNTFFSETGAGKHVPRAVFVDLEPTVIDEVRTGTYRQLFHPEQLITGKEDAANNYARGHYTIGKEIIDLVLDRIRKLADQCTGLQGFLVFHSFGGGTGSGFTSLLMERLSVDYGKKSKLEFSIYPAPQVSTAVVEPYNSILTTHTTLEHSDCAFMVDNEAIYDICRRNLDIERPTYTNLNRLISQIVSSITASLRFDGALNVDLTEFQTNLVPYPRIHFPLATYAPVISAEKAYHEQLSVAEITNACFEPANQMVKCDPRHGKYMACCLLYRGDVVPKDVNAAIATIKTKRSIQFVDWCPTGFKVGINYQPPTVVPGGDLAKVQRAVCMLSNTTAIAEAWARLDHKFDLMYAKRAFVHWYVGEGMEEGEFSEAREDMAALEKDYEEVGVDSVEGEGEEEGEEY
Bovine brain α/β tubulin (bovine), sequence (Q6B856 whole entry, chain 2 of 2, further chain): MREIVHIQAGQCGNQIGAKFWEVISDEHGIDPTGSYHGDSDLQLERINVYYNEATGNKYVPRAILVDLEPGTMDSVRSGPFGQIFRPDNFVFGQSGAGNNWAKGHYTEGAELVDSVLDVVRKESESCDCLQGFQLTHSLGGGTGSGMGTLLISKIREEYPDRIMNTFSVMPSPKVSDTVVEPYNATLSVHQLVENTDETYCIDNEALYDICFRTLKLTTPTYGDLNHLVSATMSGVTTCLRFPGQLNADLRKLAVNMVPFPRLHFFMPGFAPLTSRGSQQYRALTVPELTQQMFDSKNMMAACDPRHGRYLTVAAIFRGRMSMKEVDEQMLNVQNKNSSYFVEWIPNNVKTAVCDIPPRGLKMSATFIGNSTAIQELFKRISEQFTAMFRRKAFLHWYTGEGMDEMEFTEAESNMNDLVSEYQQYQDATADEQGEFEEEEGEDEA

Turning to GST-PN2-2 (from UniProt Q9HC77 191-310), the distribution of tubulin in supernatant and pellet, in vitro microtubule sedimentation assay (15 µM tubulin) worked out at 40 µM.

(Values after patent publication US6864238.)
